In this experiment the target is recombinant ACE2 protein (coated plate of the RayBio COVID-19 Spike ACE2 binding assay kit II) (UniProt P0DTC2). Description: ELISA; […] ([…], in PBS), 2 h at room temperature; […]. For orientation: ELISA stands for enzyme-linked immunosorbent assay.

For one substance, IC50 results are on record in article PMC11277083, “A Natural Bioactive Peptide from Pinctada fucata Pearls Can Be Used as a Potential Inhibitor of the Interaction between SARS-CoV-2 and ACE2 against COVID-19” (International Journal of Molecular Sciences, 2024).

Broadly, the IC50 is the concentration that inhibits the measured activity by half. For KKCH peptide, the IC50 came out at 413 µM.
